Reference: patent publication US20260053913A1 (BIOENTRE, published 2026)

T1: human CTLA4 (cytotoxic T-lymphocyte-associated antigen-4), isoform CTLA4-TM (human, UniProt P16410 36-223)
T1 sequence: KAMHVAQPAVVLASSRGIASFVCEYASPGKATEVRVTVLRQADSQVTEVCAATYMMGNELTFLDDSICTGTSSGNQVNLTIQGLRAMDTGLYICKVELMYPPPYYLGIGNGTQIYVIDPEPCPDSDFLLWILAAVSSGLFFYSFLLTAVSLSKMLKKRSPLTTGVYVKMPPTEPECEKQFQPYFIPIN

B1: BNI3, mouse IgG2a anti-human CTLA4 (CD152) antibody from BioXcell (antibody, V domains shown)
VH: DVQLQESGPGLVKPSQSLSLTCSVTGYSITSGYVWNWIRQFPGNKLEWMGYISHDGNTNYNPSLKNRISITRDTSKNQFFLKLNSVTTEDSATYYCTRNYGYGGTMDYWGQGTAVSVSS
VL: DIVMTQSQKFMSTSVGDRVSVTCKASQNVGTYVAWYEQKLGQSPKALIFSASYRYTGVPDRFTGSGSGTDFTLTISNVQSEDLAEYFCQQYDSYPLTFGGGTKLEIKR
B2: L3D10 (antibody, from another filing, V domains shown)
VH: QVQLKESGPGLVAPSQSLSITCTVSGFSLTSYGLSWVRQPPGKGLEWLGVIWYDGNTNFHSALISRLTISKDNSKSQVFLELNSLQTDDTATYYCAKTEGHYYGSNYGYYALDYWGQGTSVTVSS
VL: DIQMTQSPASLSVSVGETVTITCRASENIYSNLAWYQQKQGKSPQLLVYAATNLADGVPSRFSGSGSGTQYSLKINSLQSEDFGTYFCQHLWGTPYTFGGGTKLEIKR
B3: BioE2032 (121 HuIgG1) (antibody, V domains shown)
VH: QVQLQESGPGLVKPSQTLSLTCTVSGFSLTSYGVYWVRQPPGKGLEWLGVIWAGGTTNYNSALMSRLTISKDTSKNQVSLKLSSVTAADTAVYYCARGPPHAMMKRGYAMDYWGQGTLVTVSS
VL: DIQMTQSPSSLSASVGDRVTITCSATSSITYMSWYQQKPGKAPKLLIYDTSNLASGVPSRFSGSGSGTDYTLTISSLQPEDFATYYCQQWSSYPLTFGGGTKLEIK

What was measured:
[1] = target: T1, human CTLA4 (cytotoxic …); assay: cell-based or functional assay
[2] = target: human CTLA4 (cytotoxic T-lymphocyte-associated antigen-4), isoform CTLA4-TM (human) (UniProt P16410); assay: cell-based or functional assay

| Binder | biological activity relative to Ipilimumab, Promega anti-CTLA 4 and anti-CTLA 4 + anti-PD1 functional blockade assays [1] | half maximum activity concentration, αCTLA 4 functional blockade assay [1] | maximal activity (ratio RLU), αCTLA 4 functional blockade assay [2] | plateau of the titration curve (ratio RLU over background) at 200 nM or greater [2] |
| --- | --- | --- | --- | --- |
| B1 | < 60 % of Ipilimumab activity | ~50 nM | – | – |
| B2 | – | – | 15 ratio RLU | 15 to 20 ratio RLU |
| B3 | – | ~50 nM | – | – |
